From paper PMC3174691 (Journal of molecular biology, 2008)

Target: T1, E. coli RecB (E. coli, UniProt P08394 1-1180)
T1 sequence (looked up): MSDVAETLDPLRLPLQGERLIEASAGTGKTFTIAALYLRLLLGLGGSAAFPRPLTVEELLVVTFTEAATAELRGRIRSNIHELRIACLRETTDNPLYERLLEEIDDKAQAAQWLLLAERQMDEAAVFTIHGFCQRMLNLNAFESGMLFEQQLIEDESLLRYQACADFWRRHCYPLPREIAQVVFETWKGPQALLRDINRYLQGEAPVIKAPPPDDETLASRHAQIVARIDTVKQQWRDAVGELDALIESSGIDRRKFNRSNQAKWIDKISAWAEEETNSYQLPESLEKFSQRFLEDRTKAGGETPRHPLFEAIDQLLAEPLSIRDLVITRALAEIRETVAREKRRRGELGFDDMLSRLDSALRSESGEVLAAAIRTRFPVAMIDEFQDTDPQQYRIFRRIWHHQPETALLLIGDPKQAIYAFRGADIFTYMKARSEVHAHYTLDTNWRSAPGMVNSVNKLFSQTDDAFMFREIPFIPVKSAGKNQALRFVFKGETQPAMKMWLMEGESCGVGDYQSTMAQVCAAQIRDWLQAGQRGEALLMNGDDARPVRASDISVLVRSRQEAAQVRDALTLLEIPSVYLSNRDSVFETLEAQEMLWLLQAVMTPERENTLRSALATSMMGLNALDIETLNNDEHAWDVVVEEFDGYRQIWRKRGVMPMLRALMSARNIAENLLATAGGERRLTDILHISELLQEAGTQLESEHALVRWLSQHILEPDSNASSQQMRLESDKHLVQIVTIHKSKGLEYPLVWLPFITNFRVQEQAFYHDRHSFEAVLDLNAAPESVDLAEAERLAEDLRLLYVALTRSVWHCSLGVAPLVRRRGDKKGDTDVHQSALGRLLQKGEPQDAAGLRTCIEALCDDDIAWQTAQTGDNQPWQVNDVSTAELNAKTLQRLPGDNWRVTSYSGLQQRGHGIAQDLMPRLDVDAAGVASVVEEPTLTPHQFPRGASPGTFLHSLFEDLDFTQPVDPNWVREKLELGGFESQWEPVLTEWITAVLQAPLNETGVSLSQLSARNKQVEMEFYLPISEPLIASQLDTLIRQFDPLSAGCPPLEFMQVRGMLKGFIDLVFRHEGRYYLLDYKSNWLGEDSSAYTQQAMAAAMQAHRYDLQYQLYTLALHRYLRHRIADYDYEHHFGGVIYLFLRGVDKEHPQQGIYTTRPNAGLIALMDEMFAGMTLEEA
Test: reconstitution of the complex by mixing

binding result: binds
B1: E. coli RecC (natural protein, UniProt P07648 1-1122, looked up)
chain: MLRVYHSNRLDVLEALMEFIVERERLDDPFEPEMILVQSTGMAQWLQMTLSQKFGIAANIDFPLPASFIWDMFVRVLPEIPKESAFNKQSMSWKLMTLLPQLLEREDFTLLRHYLTDDSDKRKLFQLSSKAADLFDQYLVYRPDWLAQWETGHLVEGLGEAQAWQAPLWKALVEYTHQLGQPRWHRANLYQRFIETLESATTCPPGLPSRVFICGISALPPVYLQALQALGKHIEIHLLFTNPCRYYWGDIKDPAYLAKLLTRQRRHSFEDRELPLFRDSENAGQLFNSDGEQDVGNPLLASWGKLGRDYIYLLSDLESSQELDAFVDVTPDNLLHNIQSDILELENRAVAGVNIEEFSRSDNKRPLDPLDSSITFHVCHSPQREVEVLHDRLLAMLEEDPTLTPRDIIVMVADIDSYSPFIQAVFGSAPADRYLPYAISDRRARQSHPVLEAFISLLSLPDSRFVSEDVLALLDVPVLAARFDITEEGLRYLRQWVNESGIRWGIDDDNVRELELPATGQHTWRFGLTRMLLGYAMESAQGEWQSVLPYDESSGLIAELVGHLASLLMQLNIWRRGLAQERPLEEWLPVCRDMLNAFFLPDAETEAAMTLIEQQWQAIIAEGLGAQYGDAVPLSLLRDELAQRLDQERISQRFLAGPVNICTLMPMRSIPFKVVCLLGMNDGVYPRQLAPLGFDLMSQKPKRGDRSRRDDDRYLFLEALISAQQKLYISYIGRSIQDNSERFPSVLVQELIDYIGQSHYLPGDEALNCDESEARVKAHLTCLHTRMPFDPQNYQPGERQSYAREWLPAASQAGKAHSEFVQPLPFTLPETVPLETLQRFWAHPVRAFFQMRLQVNFRTEDSEIPDTEPFILEGLSRYQINQQLLNALVEQDDAERLFRRFRAAGDLPYGAFGEIFWETQCQEMQQLADRVIACRQPGQSMEIDLACNGVQITGWLPQVQPDGLLRWRPSLLSVAQGMQLWLEHLVYCASGGNGESRLFLRKDGEWRFPPLAAEQALHYLSQLIEGYREGMSAPLLVLPESGGAWLKTCYDAQNDAMLDDDSTLQKARTKFLQAYEGNMMVRGEGDDIWYQRLWRQLTPETMEAIVEQSQRFLLPLFRFNQS
